The text below walks through data of patent US7387779B2, “Anti-angiogenic proteins and fragments and methods of use thereof” (Beth Israel Deaconess Medical Center, priority 1998, dated 2008).

The test system of series [1] is C-PAE cells. Description: Cell cycle analysis (propidium iodide, flow cytometry). In kind it is cell-based, bovine. The following applies: for percentage of cells in G0/G1 phase: bFGF control 53.4%; for G1 (cell cycle arrest assay): Table 4. As for the experimental part:
To further evaluate the mechanism of T3 peptide on endothelial cell proliferation, the effect of T3 peptide on cell cycle progression was analyzed. In the growth arrested and contact inhibited cells (0 hour), 4.1% of cells were in S phase. […] This was true even at a maximal dosage of 100 μg/ml. The effect of the T3 peptide was dose-dependent, however, with the percentage of cells in S phase at 21.4% at 10 μg/ml, and 20.5% at 25 μg/ml. The percentage of cells in G0/G1 phase was 88.3% at 0 hour, 53.4% for the bFGF control, and 57.6%, 57.6% and 71.0% for treatments with T1, T6 and T3 peptide, respectively. […] Apoptotic Activity: Peptides T2, T3, T4, T5 and T6 (10 μg/ml concentration) were tested for their effect of viability of C-PAE cells using the MTT assay, as described in Examples 32 and 36 above. The results are shown in FIG. 43D, which is a histogram showing cell viability as measured at OD595 (y-axis), and treatments with the synthetic peptides (x-axis). […] TNF-α (100 ng/ml) was used to serve as a positive control in inducing endothelial cell apoptosis.
The effect of Tumstatin-44-131 and Tum-5-125-C-A on the cell cycle were assayed similarly to Example 4 above. Briefly, C-PAE cells were growth arrested by contact inhibition for 48 hours. The cells, at 10^5 cells per well, were then harvested and plated into a 12-well plate coated with fibronectin in 5% FCS and either recombinant Tumstatin-44-131 or Tum-5-125-C-A. After 21 hours, the cells were harvested and fixed in 70% ice-cold ethanol. The fixed cells were rehydrated a room temperature for 30 minutes in PBS containing 2% FCS and 0.1% Tween-20, centrifuged and resuspended in 0.5 ml of the same buffer. RNase (5 μg/ml) digestion was done at 37° C. for one hour, followed by staining with propidium iodide (5 μg/ml). The cells were then counted using an EPICS XL-MCL flow cytometer (Beckman-Coulter Instruments, Fullerton, Calif., USA).
(In general: In flow cytometry, cells or beads pass a laser one at a time.)

Series [2] has as its system Caspase-3 in PC-3 cells. Description: Caspase-3 assay. Format: cell-based, human. As for the experimental part: Tumstatin also altered cell morphology of C-PAE cells as monitored by phase contrast microscopy. After treating cells with 20 μg/ml of Tumstatin in the presence of 10% FCS for 24 hours on fibronectin-coated plates, the typical morphological features of apoptotic cells, membrane blebbing, cytoplasmic shrinkage, and chromatin condensation could be observed. […] Caspase-3 assay: Caspase-3 (CPP32) is an intracellular protease activated at the early stage of apoptosis, and initiates cellular breakdown by degrading structural and DNA repair proteins (Casciola-Rosen, L. et al., 1996, J. Exp. Med. 183:1957-64; Salvesen, G. S. et al., 1997, Cell 91:443-46). The protease activity of Caspase-3 was measured spectrophotometrically by detection of the chromophore (p-nitroanilide) cleaved from the labeled substrate (DEVD-pNA). C-PAE cells or PC-3 cells (0.5×10^6 per well) were plated onto a 6-well plate precoated with fibronectin (10 μg/ml) in DMEM supplemented with 10% FCS, and incubated overnight. The next day, the medium was replaced with DMEM containing 2% FCS and then incubated overnight at 37° C. Then cells were then stimulated with bFGF (3 ng/ml) in DMEM supplemented with 2% FCS, and also containing either TNF-α (80 ng/ml, positive control) or Tumstatin (10 μg/ml), and incubated for 24 hours. Controls received PBS buffer. […] Cells were counted and resuspended in cell lysis buffer (Clontech) at a concentration of 4×10^7 cells/ml. […] The absorbance was measured in a microplate reader (Bio-Rad, Hercules, Calif., USA) at 405 nm. […]
The results are shown in FIG. 53, which is a histogram showing caspase-3 activity (as measured at OD405, y-axis) of (x-axis) the control, control+DEVD-fmk, TNF-α, TNF-α+DEVD-fmk, Tumstatin-44-131 (1 μg/ml and 10 μg/ml), and Tumstatin-44-131 (10 μg/ml)+DEVD-fmk. […]
The protease activity of Caspase-3 in cells treated with T3 peptide was measured spectrophotometrically by detection of the chromophore (p-nitroanilide) cleaved from the labeled substrate (DEVD-pNA). […]

Series [3] deals with Caspase-3 in C-PAE cells. As to the kind of experiment: Caspase-3 assay. In kind it is cell-based, bovine. The following applies: for effect on Caspase-3 activity: 5 μg/ml. As for the experimental part:
Tumstatin also altered cell morphology of C-PAE cells as monitored by phase contrast microscopy. After treating cells with 20 μg/ml of Tumstatin in the presence of 10% FCS for 24 hours on fibronectin-coated plates, the typical morphological features of apoptotic cells, membrane blebbing, cytoplasmic shrinkage, and chromatin condensation could be observed. […] Caspase-3 assay: Caspase-3 (CPP32) is an intracellular protease activated at the early stage of apoptosis, and initiates cellular breakdown by degrading structural and DNA repair proteins (Casciola-Rosen, L. et al., 1996, J. Exp. Med. 183:1957-64; Salvesen, G. S. et al., 1997, Cell 91:443-46). The protease activity of Caspase-3 was measured spectrophotometrically by detection of the chromophore (p-nitroanilide) cleaved from the labeled substrate (DEVD-pNA). C-PAE cells or PC-3 cells (0.5×10^6 per well) were plated onto a 6-well plate precoated with fibronectin (10 μg/ml) in DMEM supplemented with 10% FCS, and incubated overnight. The next day, the medium was replaced with DMEM containing 2% FCS and then incubated overnight at 37° C. Then cells were then stimulated with bFGF (3 ng/ml) in DMEM supplemented with 2% FCS, and also containing either TNF-α (80 ng/ml, positive control) or Tumstatin (10 μg/ml), and incubated for 24 hours. Controls received PBS buffer. After 24 hours, the supernatant cells were collected, and attached cells were trypsinized and combined with the supernatant cells. Cells were counted and resuspended in cell lysis buffer (Clontech) at a concentration of 4×10^7 cells/ml. The rest of the protocol followed the manufacturer's instructions (Clontech). A specific inhibitor of Caspase-3, DEVD-fmk (Asp-Glu-Val-Asp-fluoromethyl ketone) was used to confirm the specificity of the assay. The absorbance was measured in a microplate reader (Bio-Rad, Hercules, Calif., USA) at 405 nm. The assay was repeated three times for each cell type.
Apoptosis was also evaluated by measuring Caspase-3 activity as described in Example 27, above. The results are shown in FIG. 35, which is a histogram showing Caspase-3 activity as a measure of absorbance at OD405 (y-axis) of C-PAE cells treated (x-axis) with 5 μg/ml Tum-1, Tum-2, Tum-3 or Tum-4, or 80 ng/ml TNF-α or PBS buffer (control).
Caspase-3 activity was also assayed as described above. DEVD-fmk, a specific caspase-3 inhibitor, was used as an internal control to show specificity of Tumstatin-44-131. TNF-α (80 ng/ml) was used as a positive control. The experiments were repeated three times.
The protease activity of Caspase-3 in cells treated with T3 peptide was measured spectrophotometrically by detection of the chromophore (p-nitroanilide) cleaved from the labeled substrate (DEVD-pNA). […] In PC-3 nonendothelial cells, there was no difference in Caspase-3 activity between control treatments and T3 peptide-treated cells.

In series [4] the test system is PC-3 tumors. Particulars: for tumor volume on day 10: 20 mg/kg i.p. daily for 10 days, control 202.8±50.0.
Method: In a second PC-3 experiment, PC-3 cells were harvested from culture and 3 million cells were injected into 6- to 7-week-old athymic nude mice, and tumors were allowed to grow subcutaneously for approximately 2 weeks after which the animals were divided into groups of four mice. Experimental groups (4 mice) were injected daily I.P. with Canstatin at a dosage of 3 mg/kg in a total volume of 0.2 ml of PBS or endostatin at a dosage of 8 mg/kg in the same volume of PBS. The control group (4 mice) received equal volumes of PBS each day. Tumor length and width were measured using a Vernier caliper and the tumor volume was calculated using the standard formula: length×width^2×0.52. Tumor volumes ranged from 26 mm^3 to 73 mm^3, and the calculated tumor volume on a given day was divided by the volume on treatment day 0 to produce a fractional tumor volume (V/V0), as described above.

Regarding GLKGKRGDSGSPATWTTRGF [T1], the “percentage of cells in S phase” value in series [1] (bFGF 24 hours (control 22.1%), T1 or T6, maximal dosage of 100 μg/ml) turned out to be 22.3%. The “percentage of cells in G0/G1 phase” value in series [1] amounted to 57.6%.
For LQRFTTMPFLFCNVNDVCNF [T3], the “Caspase-3 activity in nonendothelial PC-3 cells” value in series [2] is given as “no difference”. Besides, the “fold increase in Caspase-3 activity” value in series [3] (50 μg/ml T3 peptide, TNF-α 80 ng/ml) came out at 3.6 fold; in series [3] (T3 peptide at 10 mg/ml (so in the source)) it was 1.6 fold. Also, the “percentage of cells in S phase” value in series [1] (bFGF 24 hours (control 22.1%), 50 μg/ml) was 13.8%; in series [1] (bFGF 24 hours, 10 μg/ml), 21.4%; in series [1] (bFGF 24 hours, 25 μg/ml), 20.5%. The “percentage of cells in G0/G1 phase” value in series [1] amounted to 71.0%.

B1: Tum-4: residues 181 to 244 of Tumstatin (SEQ ID NO:25) (protein)
chain: EFRASPFLECHGRGTCNYYSNSYSFWLASLNPERMFRKPIPSTVKAGELEKIISRCQVCMKKRH
modifications: Tum-4 (amino acids 181-244 of SEQ ID NO10)
In the case of B1, the “effect on Caspase-3 activity” value in series [3] was “did not”.

B2: Tumstatin: NC1 domain of the α3 chain of type IV collagen, residues 1-244 (SEQ ID NO:10) (protein, listed as Homo sapiens)
chain: GLKGKRGDSGSPATWTTRGFVFTRHSQTTAIPSCPEGTVPLYSGFSFLFVQGNQRAHGQDLGTLGSCLQRFTTMPFLFCNVNDVCNFASRNDYSYWLSTPALMPMNMAPITGRALEPYISRCTVCEGPAIAIAVHSQTTDIPPCPHGWISLWKGFSFIMFTSAGSEGTGQALASPGSCLEEFRASPFLECHGRGTCNYYSNSYSFWLASLNPERMFRKPIPSTVKAGELEKIISRCQVCMKKRH
For the molecule B2, in series [2], the “Caspase-3 activity in nonendothelial PC-3 cells” value was “no difference”. Moreover, the “tumor volume on day 10” value in series [4] is recorded as 82.9±25.2 mm^3. In addition, in series [1], the “G1 (cell cycle arrest assay)” value is 10 µg.

B3: Canstatin: NC1 domain of the α2 chain of Type IV collagen (SEQ ID NO:6) (protein, listed as Homo sapiens)
chain: VSIGYLLVKHSQTDQEPMCPVGMNKLWSGYSLLYFEGQEKAHNQDLGLAGSCLARFSTMPFLYCNPGDVCYYASRNDKSYWLSTTAPLPMMPVAEDEIKPYISRCSVCEAPAIAIAVHSQDVSIPHCPAGWRSLWIGYSFLMHTAAGDEGGGQSLVSPGSCLEDFRATPFIECNGGRGTCHYYANKYSFWLTTIPEQSFQGSPSADTLKAGLIRTHISRCQVCMKNL
As for B3, the “tumor suppression compared with endostatin” value in series [4] (3 mg/kg Canstatin) is listed as “same suppressive effect as 8 mg/kg of endostatin”. Moreover, the “treated tumors, fold less than placebo” value in series [4] (athymic (nu/nu) mice) is 2.4 fold. The “condition of mice during treatment” value in series [4] (mouse, in vivo) is on record as “appeared healthy with no signs of wasting”.

B4: Tumstatin-44-131: residues 44 to 131 of full-length Tumstatin (SEQ ID NO:33) (protein)
chain: FSFLFVQGNQRAHGQDLGTLGSCLQRFTTMPFLFCNVNDVCNFASRNDYSYWLSTPALMPMNMAPITGRALEPYISRCTVCEGPAIAI
modifications: Tumstatin-45-132 (amino acids 45-132 of SEQ ID NO10)
With B4, the “Caspase-3 activity in nonendothelial PC-3 cells” value in series [2] is “not observed”. Also, in series [3] (10 μg/ml E. Coli-expressed Tumstatin-44-131, TNF-α 80 ng/ml), the “fold increase in Caspase-3 activity” value amounted to 4.5 fold. Moreover, the “percentage of cells in S phase” value in series [1] (5% FCS 21 hours (control 21.5%), dose not given) is on record as 6.0%; in series [1] (5% FCS 21 hours, 1 μg/ml) it was 19.3%; in series [1] (5% FCS 21 hours, 10 μg/ml), 11.3%. The “G1 (cell cycle arrest assay)” value in series [1] is below 5 µg.

B5: Tum-2: residues 1 to 132 of Tumstatin (SEQ ID NO:23) (protein)
chain: GLKGKRGDSGSPATWTTRGFVFTRHSQTTAIPSCPEGTVPLYSGFSFLFVQGNQRAHGQDLGTLGSCLQRFTTMPFLFCNVNDVCNFASRNDYSYWLSTPALMPMNMAPITGRALEPYISRCTVCEGPAIAI
modifications: Tum-2 (amino acids 1-132 of SEQ ID NO10)
Turning to B5, the “effect on Caspase-3 activity” value in series [3] is reported as “increased”.

B6: Tum-1: residues 54 to 244 of Tumstatin, lacking the N-terminal 53 amino acids (SEQ ID NO:22) (protein)
chain: QRAHGQDLGTLGSCLQRFTTMPFLFCNVNDVCNFASRNDYSYWLSTPALMPMNMAPITGRALEPYISRCTVCEGPAIAIAVHSQTTDIPPCPHGWISLWKGFSFIMFTSAGSEGTGQALASPGSCLEEFRASPFLECHGRGTCNYYSNSYSFWLASLNPERMFRKPIPSTVKAGELEKIISRCQVCMKKRH
modifications: Tum-1 (Tumstatin N-53) (amino acids 54-244 of SEQ ID NO10)
B6: the anti-tumor activity result in series [4] (PC3 prostate xenograft model, 5 mg or 20 mg per kilogram) is given as “substantial anti-tumor activity”. Further, the “effect on Caspase-3 activity” value in series [3] is recorded as “increased”. The “G1 (cell cycle arrest assay)” value in series [1] is 5 µg.

B7: endostatin: tumor associated angiogenesis inhibitor used as comparator (protein, UniProt P39060 1572-1754, looked up)
Endostatin: HSHRDFQPVLHLVALNSPLSGGMRGIRGADFQCFQQARAVGLAGTFRAFLSSRLQDLYSIVRRADRAAVPIVNLKDELLFPSWEALFSGSEGPLKPGARIFSFDGKDVLRHPTWPQKSVWHGSDPNGRRLTESYCETWRTEAPSATGQASSLLGGRLLGQSAASCHHAYIVLCIENSFMTASK
modifications: Endostatin
On to B7, for which the tumor suppression entry in series [4] (5 mg/kg endostatin) is on record as “not able to suppress tumor growth”. Moreover, the “tumor volume on day 10” value in series [4] was found to be 68.9±16.7 mm^3.
